Experimental findings from article doi:10.1101/197848 are described below.

For this test, the target named is Xenopus Smc3R626C-Halo (subunit of the hinge-substituted recombinant tetramer, not crosslinked) (Xenopus) (UniProt O93309). The test is described as follows: cross-linking.

With “Xenopus Smc1D566C (subunit of the hinge-substituted recombinant tetramer) (from UniProt O93308 1-1232) (natural protein)”, the crosslinking efficiency amounted to 40%.
